# IntAct's records for PubMed 31515488
# B1: F-box/WD repeat-containing protein 1A (Homo sapiens), Q9Y297 (parent)
# chain: MDPAEAVLQEKALKFMCSMPRSLWLGCSSLADSMPSLRCLYNPGTGALTAFQNSSEREDCNNGEPPRKIIPEKNSLRQTYNSCARLCLNQETVCLASTAMKTENCVAKTKLANGTSSMIVPKQRKLSASYEKEKELCVKYFEQWSESDQVEFVEHLISQMCHYQHGHINSYLKPMLQRDFITALPARGLDHIAENILSYLDAKSLCAAELVCKEWYRVTSDGMLWKKLIERMVRTDSLWRGLAERRGWGQYLFKNKPPDGNAPPNSFYRALYPKIIQDIETIESNWRCGRHSLQRIHCRSETSKGVYCLQYDDQKIVSGLRDNTIKIWDKNTLECKRILTGHTGSVLCLQYDERVIITGSSDSTVRVWDVNTGEMLNTLIHHCEAVLHLRFNNGMMVTCSKDRSIAVWDMASPTDITLRRVLVGHRAAVNVVDFDDKYIVSASGDRTIKVWNTSTCEFVRTLNGHKRGIACLQYRDRLVVSGSSDNTIRLWDIECGACLRVLEGHEELVRCIRFDNKRIVSGAYDGKIKVWDLVAALDPRAPAGTLCLRTLVEHSGRVFRLQFDEFQIVSSSHDDTILIWDFLNDPAAQAEPPRSPSRTYTYISR
# partner: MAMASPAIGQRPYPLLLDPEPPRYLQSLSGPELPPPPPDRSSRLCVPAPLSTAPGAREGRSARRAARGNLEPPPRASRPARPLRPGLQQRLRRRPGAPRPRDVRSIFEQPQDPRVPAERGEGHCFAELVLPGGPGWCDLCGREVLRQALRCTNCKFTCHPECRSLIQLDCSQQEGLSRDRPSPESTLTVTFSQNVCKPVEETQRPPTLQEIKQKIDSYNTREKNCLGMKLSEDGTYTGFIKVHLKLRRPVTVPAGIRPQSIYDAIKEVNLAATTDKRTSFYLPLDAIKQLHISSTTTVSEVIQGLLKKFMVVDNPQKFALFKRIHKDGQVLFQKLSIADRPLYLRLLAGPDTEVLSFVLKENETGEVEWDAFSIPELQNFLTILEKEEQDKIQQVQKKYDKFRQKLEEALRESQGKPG
# B2: Cdc42 effector protein 4 (Homo sapiens), Q9H3Q1 (parent)
# chain: MPILKQLVSSSVHSKRRSRADLTAEMISAPLGDFRHTMHVGRAGDAFGDTSFLNSKAGEPDGESLDEQPSSSSSKRSLLSRKFRGSKRSQSVTRGEREQRDMLGSLRDSALFVKNAMSLPQLNEKEAAEKGTSKLPKSLSSSPVKKANDGEGGDEEAGTEEAVPRRNGAAGPHSPDPLLDEQAFGDLTDLPVVPKATYGLKHAESIMSFHIDLGPSMLGDVLSIMDKEEWDPEEGEGGYHGDEGAAGTITQAPPYAVAAPPLARQEGKAGPDLPSLPSHALEDEGWAAAAPSPGSARSMGSHTTRDSSSLSSCTSGILEERSPAFRGPDRARAAVSRQPDKEFSFMDEEEEDEIRV
# B3: Interferon-induced protein with tetratricopeptide repeats 2 (Homo sapiens), P09913 (parent)
# chain: MSENNKNSLESSLRQLKCHFTWNLMEGENSLDDFEDKVFYRTEFQNREFKATMCNLLAYLKHLKGQNEAALECLRKAEELIQQEHADQAEIRSLVTWGNYAWVYYHMGRLSDVQIYVDKVKHVCEKFSSPYRIESPELDCEEGWTRLKCGGNQNERAKVCFEKALEKKPKNPEFTSGLAIASYRLDNWPPSQNAIDPLRQAIRLNPDNQYLKVLLALKLHKMREEGEEEGEGEKLVEEALEKAPGVTDVLRSAAKFYRRKDEPDKAIELLKKALEYIPNNAYLHCQIGCCYRAKVFQVMNLRENGMYGKRKLLELIGHAVAHLKKADEANDNLFRVCSILASLHALADQYEDAEYYFQKEFSKELTPVAKQLLHLRYGNFQLYQMKCEDKAIHHFIEGVKINQKSREKEKMKDKLQKIAKMRLSKNGADSEALHVLAFLQELNEKMQQADEDSERGLESGSLIPSASSWNGE
# partner: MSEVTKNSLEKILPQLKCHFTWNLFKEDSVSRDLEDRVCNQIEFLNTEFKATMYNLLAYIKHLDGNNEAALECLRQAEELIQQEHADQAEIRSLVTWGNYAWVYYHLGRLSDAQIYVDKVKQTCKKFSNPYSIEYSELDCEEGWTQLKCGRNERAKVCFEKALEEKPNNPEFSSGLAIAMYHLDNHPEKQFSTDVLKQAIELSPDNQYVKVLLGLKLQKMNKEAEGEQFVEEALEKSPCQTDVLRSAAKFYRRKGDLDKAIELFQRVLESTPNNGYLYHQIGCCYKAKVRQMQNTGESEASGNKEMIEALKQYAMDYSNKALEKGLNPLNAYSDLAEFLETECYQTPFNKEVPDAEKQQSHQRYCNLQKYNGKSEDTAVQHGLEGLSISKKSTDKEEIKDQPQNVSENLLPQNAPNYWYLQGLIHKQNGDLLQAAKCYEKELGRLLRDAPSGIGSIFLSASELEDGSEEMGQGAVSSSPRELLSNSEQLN
# B4: Protein phosphatase 1 regulatory inhibitor subunit 16B (Homo sapiens), Q96T49 (parent)
# chain: MASHVDLLTELQLLEKVPTLERLRAAQKRRAQQLKKWAQYEQDLQHRKRKHERKRSTGGRRKKVSFEASVALLEASLRNDAEEVRYFLKNKVSPDLCNEDGLTALHQCCIDNFEEIVKLLLSHGANVNAKDNELWTPLHAAATCGHINLVKILVQYGADLLAVNSDGNMPYDLCEDEPTLDVIETCMAYQGITQEKINEMRVAPEQQMIADIHCMIAAGQDLDWIDAQGATLLHIAGANGYLRAAELLLDHGVRVDVKDWDGWEPLHAAAFWGQMQMAELLVSHGASLSARTSMDEMPIDLCEEEEFKVLLLELKHKHDVIMKSQLRHKSSLSRRTSSAGSRGKVVRRASLSDRTNLYRKEYEGEAILWQRSAAEDQRTSTYNGDIRETRTDQENKDPNPRLEKPVLLSEFPTKIPRGELDMPVENGLRAPVSAYQYALANGDVWKVHEVPDYSMAYGNPGVADATPPWSSYKEQSPQTLLELKRQRAAAKLLSHPFLSTHLGSSMARTGESSSEGKAPLIGGRTSPYSSNGTSVYYTVTSGDPPLLKFKAPIEEMEEKVHGCCRIS
# partner: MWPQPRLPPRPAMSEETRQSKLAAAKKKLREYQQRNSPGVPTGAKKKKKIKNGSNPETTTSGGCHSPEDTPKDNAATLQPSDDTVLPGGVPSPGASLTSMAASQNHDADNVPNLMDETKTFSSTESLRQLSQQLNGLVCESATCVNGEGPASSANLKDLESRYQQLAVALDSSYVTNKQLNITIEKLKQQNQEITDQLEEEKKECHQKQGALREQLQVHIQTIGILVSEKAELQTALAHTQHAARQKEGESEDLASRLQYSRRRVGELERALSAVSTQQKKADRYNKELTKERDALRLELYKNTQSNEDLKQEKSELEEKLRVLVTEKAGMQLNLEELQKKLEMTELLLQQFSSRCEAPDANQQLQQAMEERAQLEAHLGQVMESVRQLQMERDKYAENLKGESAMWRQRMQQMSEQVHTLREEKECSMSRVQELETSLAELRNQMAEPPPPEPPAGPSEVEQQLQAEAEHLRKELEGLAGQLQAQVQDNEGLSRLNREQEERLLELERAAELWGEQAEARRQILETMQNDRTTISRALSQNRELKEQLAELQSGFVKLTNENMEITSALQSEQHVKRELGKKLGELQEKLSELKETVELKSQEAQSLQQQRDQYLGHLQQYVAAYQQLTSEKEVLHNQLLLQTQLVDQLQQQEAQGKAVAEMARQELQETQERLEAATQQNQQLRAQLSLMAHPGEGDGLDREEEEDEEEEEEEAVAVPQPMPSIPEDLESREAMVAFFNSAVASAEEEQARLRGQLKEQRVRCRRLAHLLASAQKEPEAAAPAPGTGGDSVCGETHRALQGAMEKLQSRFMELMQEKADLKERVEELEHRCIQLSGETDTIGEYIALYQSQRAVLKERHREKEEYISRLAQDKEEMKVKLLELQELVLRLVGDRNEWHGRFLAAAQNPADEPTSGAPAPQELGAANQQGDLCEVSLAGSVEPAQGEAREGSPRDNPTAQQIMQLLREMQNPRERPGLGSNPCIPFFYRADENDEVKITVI
# Variants of: B1
# Conditions: with rasf5_human RASSF5, Q8WWW0
row,Variant,effect of a mutation on the interaction
1,P592H,with no effect
2,I439V,disrupting interaction strength
3,T601S,with no effect
4,R594H,with no effect
5,T414A,disrupting interaction strength
6,L8M,with no effect

# Variants of: B2
# Conditions: with fam9b_human FAM9B
row,Variant,effect of a mutation on the interaction
1,MPILKQLVSSSVHSKRRSRADLTAEMISAPLGDFRHTMHVGRAGDAFGDTSFLNSKAGEPDGESLDEQPSSSSSKRSLLSRKFRGSKRSQSVTRGEREQRDVLGSLRDSALFVKNAMSLPQLNEKEAAEKGTSKLPKSLSSSPVKKANDGEGGDEEAGTEEAVPRRNGAAGPHSPDPLLDEQAFGDLTDLPVVPKATYGLKHAESIMSFHIDLGPSMLGDVLSIMDKEEWDPEEGEGGYHGDEGAAGTITQAPPYAVAAPPLARQEGKAGPDLPSLPSHALEDEGWAAAAPSPGSARSMGSHTTRDSSSLSSCTSGILEERSPAFRGPDRARAAVSRQPDKEFSFMDEEEEDEIRV [M102V],with no effect

# Variants of: B3
# Conditions: with ifit3_human IFIT3, O14879
row,Variant,effect of a mutation on the interaction
1,MSENNKNSLESSLRQLKCHFTWNLMEGENSLDDFEDKVFYRTEFQNREFKATMCNLLAYLKHLKGQNEAALECLRKAEALIQQEHADQAEIRSLVTWGNYAWVYYHMGRLSDVQIYVDKVKHVCEKFSSPYRIESPELDCEEGWTRLKCGGNQNERAKVCFEKALEKKPKNPEFTSGLAIASYRLDNWPPSQNAIDPLRQAIRLNPDNQYLKVLLALKLHKMREEGEEEGEGEKLVEEALEKAPGVTDVLRSAAKFYRRKDEPDKAIELLKKALEYIPNNAYLHCQIGCCYRAKVFQVMNLRENGMYGKRKLLELIGHAVAHLKKADEANDNLFRVCSILASLHALADQYEDAEYYFQKEFSKELTPVAKQLLHLRYGNFQLYQMKCEDKAIHHFIEGVKINQKSREKEKMKDKLQKIAKMRLSKNGADSEALHVLAFLQELNEKMQQADEDSERGLESGSLIPSASSWNGE [E79A],disrupting interaction strength

# Variants of: B4
# Conditions: with goga2_human GOLGA2, Q08379
row,Variant,effect of a mutation on the interaction
1,MASHVDLLTELQLLEKVPTLERLRAAQKRRAQQLKKWAQYEQDLQHRKRKHERKRSTGGRRKKVSFEASVALLEASLRNDAEEVRYFLKNKVSPDLCNEDGLTALHQCCIDNFEEIVKLLLSHGANVNAKDNELWTPLHAAATCGHINLVKILVQYGADLLAVNSDGNMPYDLCEDEPTLDVIETCMAYQGITQEKINEMRVAPEQQMIADIHCMIAAGQDLDWIDAQGATLLHIAGANGYLRAAELLLDHGVRVDVKDWDGWEPLHAAAFWGQMQMAELLVSHGASLSARTSMDEMPIDLCEEEEFKVLLLELKHKHDVIMKSQLRHKSSLSRRTSSAGSRGKVVRRASLSDRTNLYRKEYEGEAILWQRSAAEDQRTSTYNGDIRETRTDQENKDPNPRLEKPVLLSEFPTKIPRGELDMPVENGLRAPVSAYQYALANGDVWKVHEVPDYSMAYGNPGVADATPPWSSYKEQSPQTLLELKRQRAAAKLLSHPFLSTHLGSSMARTGESSSEGKASLIGGRTSPYSSNGTSVYYTVTSGDPPLLKFKAPIEEMEEKVHGCCRIS [P519S],with no effect
